Laboratory results reported in paper PMC9619061.
Values belong to the substance of their own block, whether it stands above or below them.

Key:
[1] = target: Coproheme decarboxylase from Geobacillus stearothermophilus (HemQ), His-tag completely cleaved (Geobacillus stearothermophilus); assay: SEC; Superdex 200 10/300, 1 ml/min, 50 mM HEPES pH 7.5, 100 mM NaCl; elution volume compared with the mass of a pentamer
[2] = target: Coproheme decarboxylase from Geobacillus stearothermophilus (HemQ), His-tag completely cleaved (Geobacillus stearothermophilus); assay: cryo-EM structure; single particle reconstruction, purified protein on glow-discharged gold Quantifoil R 1.2/1.3 grids, 50 mM HEPES pH 7.5, 100 mM NaCl; C5 and C1 symmetry
[3] = target: Coproheme decarboxylase from Geobacillus stearothermophilus (HemQ), His-tag partially cleaved (Geobacillus stearothermophilus); assay: SEC; Superdex 200 10/300, 1 ml/min, 50 mM HEPES pH 7.5, 100 mM NaCl; elution volume compared with the mass of a pentamer
[4] = target: Coproheme decarboxylase from Geobacillus stearothermophilus (HemQ), His-tag partially cleaved (Geobacillus stearothermophilus); assay: cryo-EM structure; single particle reconstruction, purified protein on glow-discharged gold Quantifoil R 1.2/1.3 grids, 50 mM HEPES pH 7.5, 100 mM NaCl; C5 and C1 symmetry
[5] = target: Coproheme decarboxylase from Geobacillus stearothermophilus (HemQ), His-tag present in all copies (Geobacillus stearothermophilus); assay: SEC; Superdex 200 10/300, 1 ml/min, 50 mM HEPES pH 7.5, 100 mM NaCl; elution volume compared with the mass of a pentamer
[6] = target: Coproheme decarboxylase from Geobacillus stearothermophilus (HemQ), His-tag present in all copies (Geobacillus stearothermophilus); assay: cryo-EM structure; single particle reconstruction, purified protein on glow-discharged gold Quantifoil R 1.2/1.3 grids, 50 mM HEPES pH 7.5, 100 mM NaCl; C5 and C1 symmetry

stoichiometry N [1]: 5 | stoichiometry N [2]: 5
Substance: Coproheme decarboxylase from Geobacillus stearothermophilus (HemQ), His-tag completely cleaved (enzyme)

stoichiometry N [3]: 5 | stoichiometry N [4]: 5
Substance: Coproheme decarboxylase from Geobacillus stearothermophilus (HemQ), His-tag partially cleaved (enzyme)

stoichiometry N [5]: 5 | stoichiometry N [6]: 5
Substance: Coproheme decarboxylase from Geobacillus stearothermophilus (HemQ), His-tag present in all copies (enzyme)
